Measured values: PMC12463490

Molecular target: T1, rCCN2 (cellular communication network factor 2) (UniProt P29279)
T1 sequence: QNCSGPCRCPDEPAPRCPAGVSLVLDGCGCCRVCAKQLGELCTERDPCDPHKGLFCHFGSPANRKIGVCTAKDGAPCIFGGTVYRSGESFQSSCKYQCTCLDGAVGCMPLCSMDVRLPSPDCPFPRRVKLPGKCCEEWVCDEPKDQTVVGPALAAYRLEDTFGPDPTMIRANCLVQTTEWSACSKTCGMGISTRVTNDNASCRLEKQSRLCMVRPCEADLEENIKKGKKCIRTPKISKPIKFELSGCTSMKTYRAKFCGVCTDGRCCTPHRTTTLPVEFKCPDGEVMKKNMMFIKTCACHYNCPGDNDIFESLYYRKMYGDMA
Experiment: EMSA
Conditions: 20 mM HEPES (pH not stated), 45 mM KCl, 10 mM NaCl, 1 mM DTT, 0.1% NP-40, 10% glycerol, 4 C overnight; 4% polyacrylamide gel in TBE

## GCACACATGCTTCCTGTGGTGACTGGGCGCTTCCTGTTTTCTCAGGCACCGGCCTTGCTGCTGCCGATGTGGAAACAGGGGCAGCTGCAGCCAGGGCGGCTCCAGGCTGGGCACTCTGACCCTGCCCAGAAGGGAGTGAGGGGGCCCACCACCCTTAGACTTACGATCTAGACAGTGGGT (double strand) [Spi1 proximal promoter probe (178 bp)]
  binding: binds
